# Results as given in patent US20210238289A1 (Biogen, published 2021).
# What was measured:
# [1] = target: T1, CD16 (FcγRIIIa V158) (UniProt P08637 17-208); assay: solution competition SPR (Biacore)
# T1 construct: V158 allotype as printed
# Protocol: (§1) Binding to Fcγ receptors was analyzed using solution affinity surface plasmon resonance (ref Day E S, Cachero T G, Qian F, Sun Y, Wen D, Pelletier M, Hsu Y M, Whitty A. Selectivity of BAFF/BLyS and APRIL for binding to the TNF family receptors BAFFR/BR3 and BCMA. Biochemistry. 2005 Feb. 15; 44(6):1919-31.) The method utilizes conditions of so-called “mass-transport-limited” binding, in which the initial rate of ligand binding (protein binding to the senor chip) is proportional to the concentration of ligand in solution (ref BIApplications Handbook (1994) Chapter 6: Concentration measurement, pp 6-1-6-10, Pharmacia Biosensor AB). Under these conditions, binding of the soluble analyte (protein flowing over chip surface) to the immobilized protein on the chip is fast compared to the diffusion of the analyte into the dextran matrix on the chip surface. Therefore, the diffusion properties of the analyte and the concentration of analyte in solution flowing over the chip surface determine the rate at which analyte binds to the chip. In this experiment, the concentration of free Fc receptor in solution is determined by the initial rate of binding to a CM5 Biacore chip containing an immobilized IgG1 MAb. Into these Fc receptor solutions were titrated the stability engineered constructs (see Table 10.1 below). […] Initial binding rates were obtained from raw sensorgram data (FIG. 14). […] The results are shown in Table 10.1 and reported as the average of two titrations.
# [2] = target: T2, CD64 (FcγRI) (UniProt P12314 16-288, limits assumed); assay: solution competition SPR (Biacore); construct titrated into receptor, free receptor read on immobilized IgG1 MAb
# Protocol: as §1
# [3] = target: T1, CD16 (FcγRIIIa V158); assay: as above
# Protocol: as §1
# [4] = target: T1, CD16 (FcγRIIIa V158); assay: solution competition SPR (Biacore); text value differing from the table (100.2)
# Protocol: Binding to Fcγ receptors was analyzed using solution affinity surface plasmon resonance (ref Day E S, Cachero T G, Qian F, Sun Y, Wen D, Pelletier M, Hsu Y M, Whitty A. Selectivity of BAFF/BLyS and APRIL for binding to the TNF family receptors BAFFR/BR3 and BCMA. Biochemistry. 2005 Feb. 15; 44(6):1919-31.) The method utilizes conditions of so-called “mass-transport-limited” binding, in which the initial rate of ligand binding (protein binding to the senor chip) is proportional to the concentration of ligand in solution (ref BIApplications Handbook (1994) Chapter 6: Concentration measurement, pp 6-1-6-10, Pharmacia Biosensor AB). Under these conditions, binding of the soluble analyte (protein flowing over chip surface) to the immobilized protein on the chip is fast compared to the diffusion of the analyte into the dextran matrix on the chip surface. Therefore, the diffusion properties of the analyte and the concentration of analyte in solution flowing over the chip surface determine the rate at which analyte binds to the chip. In this experiment, the concentration of free Fc receptor in solution is determined by the initial rate of binding to a CM5 Biacore chip containing an immobilized IgG1 MAb. Into these Fc receptor solutions were titrated the stability engineered constructs (see Table 10.1 below). […] Initial binding rates were obtained from raw sensorgram data (FIG. 14). […]
# [5] = target: T2, CD64 (FcγRI); assay: solution competition SPR (Biacore)
# Protocol: as §1
# [6] = target: T3, human C1q (human, UniProt P02745 23-245; P02746 28-253; P02747 29-245); assay: C1q ELISA
# T3 construct: Bought protein; also called complement factor C1q; Sigma human C1q (C0660)
# Protocol: The C1q binding assay was be performed by coating 96 well Maxisorb ELISA plates (Nalge-Nunc Rochester, N.Y., USA) with 50 μl recombinant soluble human CD40 ligand at 10 ug/ml overnight at 4° C. in PBS. The wells were aspirated and washed three times with wash buffer (PBS, 0.05% Tween 20) and blocked for 1 hour with 200 µl/well of block/diluent buffer (0.1 M Na2HP04, pH 7.0, 1 M NaCl, 0.05% Tween 20, 1% gelatin). The antibodies were diluted in block/diluent buffer with 3-fold dilutions and incubated for 2 hours at room temperature.
# After aspirating and washing as above, 50 pll/well of sheep anti C1q (Serotec AHP033), diluted 3, 560-fold in block/diluent buffer, were added. After incubation for 1 h at room temperature, the wells were aspirated and washed as above. 50 pll/well of donkey anti-sheep IgG HRP conjugate (Jackson ImmunoResearch 713-035-147) diluted to 1:10,000 in block/diluent were then added, and the wells incubated for 1 h at room temperature.
# After aspirating and washing as above, 100 all TMB substrate (420 plM TMB, 0.004% H2O2 in 0.1 M sodium acetate/citric acid buffer, pH 4.9) were added and incubated for 2 min before the reaction was stopped with 100 ul 2 N sulfuric acid. The absorbance was read at 450 nm with a Softmax PRO instrument, and Softmax software was used to determine the relative binding affinity (C value) with a 4-parameter fit.
IC50 [1] [µM],IC50 [2] [µM],IC50 [3] [µM],IC50 [4] [µM],IC50 [5] [µM],binding result [1],binding result [6],Binder
1320,1420,,,,,,"CN578 (hu5c8 IgG1 T299K, aglycosylated) (antibody, N-terminal Q largely converted to pyroglutamic acid (mass spectrometry), Mass spectrometry assigns HC 1-447, which fits VH (118) + IgG1 CH1 (98) + Fc moiety (231); also called aglycosylated IgG1 A299K) heavy: not shown light: DIVLTQSPATLSVSPGERATISCRASQRVSSSTYSYMHWYQQKPGQPPKLLIKYASNLESGVPARFSGSGSGTDFTLTISSVEPEDFATYYCQHSWEIPPTFGGGTKLEIKRTVAAPSVFIFPPSDEQLKSGTASVVCLLNNFYPREAKVQWKVDNALQSGNSQESVTEQDSKDSTYSLSSTLTLSKADYEKHKVYACEVTHQGLSSPVTKSFNRGEC"
,9.64,100,105,,,,"IgG1 control antibody (hu5c8 IgG1, glycosylated) (antibody, also called IgG1 wild type) heavy: not shown light: DIVLTQSPATLSVSPGERATISCRASQRVSSSTYSYMHWYQQKPGQPPKLLIKYASNLESGVPARFSGSGSGTDFTLTISSVEPEDFATYYCQHSWEIPPTFGGGTKLEIKRTVAAPSVFIFPPSDEQLKSGTASVVCLLNNFYPREAKVQWKVDNALQSGNSQESVTEQDSKDSTYSLSSTLTLSKADYEKHKVYACEVTHQGLSSPVTKSFNRGEC"
,11.2,564,,,,,"EC300 (hu5c8 IgG4.P S228P, T307P, glycosylated) (antibody, copies: 2 + 2) heavy: not shown light: DIVLTQSPATLSVSPGERATISCRASQRVSSSTYSYMHWYQQKPGQPPKLLIKYASNLESGVPARFSGSGSGTDFTLTISSVEPEDFATYYCQHSWEIPPTFGGGTKLEIKRTVAAPSVFIFPPSDEQLKSGTASVVCLLNNFYPREAKVQWKVDNALQSGNSQESVTEQDSKDSTYSLSSTLTLSKADYEKHKVYACEVTHQGLSSPVTKSFNRGEC"
,,,,4040,no binding,no binding,"EAG2287 (hu5c8 S228P/T299K, IgG4 CH2/IgG1 CH3 chimera, aglycosylated) (antibody, also called pEAG2287; copies: 2 + 2) heavy: QVQLVQSGAEVVKPGASVKLSCKASGYIFTSYYMYWVKQAPGQGLEWIGEINPSNGDTNFNEKFKSKATLTVDKSASTAYMELSSLRSEDTAVYYCTRSDGRNDMDSWGQGTLVTVSSASTKGPSVFPLAPCSRSTSESTAALGCLVKDYFPEPVTVSWNSGALTSGVHTFPAVLQSSGLYSLSSVVTVPSSSLGTKTYTCNVDHKPSNTKVDKRVESKYGPPCPPCPAPEFLGGPSVFLFPPKPKDTLMISRTPEVTCVVVDVSQEDPEVQFNWYVDGVEVHNAKTKPREEQFNSKYRVVSVLTVLHQDWLNGKEYKCKVSNKGLPSSIEKTISKAKGQPREPQVYTLPPSRDELTKNQVSLTCLVKGFYPSDIAVEWESNGQPENNYKTTPPVLDSDGSFFLYSKLTVDKSRWQQGNVFSCSVMHEALHNHYTQKSLSLSPG light: DIVLTQSPATLSVSPGERATISCRASQRVSSSTYSYMHWYQQKPGQPPKLLIKYASNLESGVPARFSGSGSGTDFTLTISSVEPEDFATYYCQHSWEIPPTFGGGTKLEIKRTVAAPSVFIFPPSDEQLKSGTASVVCLLNNFYPREAKVQWKVDNALQSGNSQESVTEQDSKDSTYSLSSTLTLSKADYEKHKVYACEVTHQGLSSPVTKSFNRGEC"
